Test results published in patent publication US9750823B2, “Use of a truncated CCN1 promoter for cancer diagnostics, therapeutics and theranostics” (priority 2013, dated 2017).

Legend:
[1] = test system: src-, raf-, ras- and HPV-transformed CREF cells; experiment: Luciferase reporter assay of p-CCN1-luc and/or TPA in transformed CREF cells; assay type: cell-based, rat; details: for effect on expression of the tCCN1-Prom: TPA 200 ng/ml
Protocol: FIGS. 1A and B. tCCN1 promoter activity in Prostate cancer (PC) and cloned rat embryo fibroblast (CREF) series of cell lines. […] B. src-, raf-, ras- and HPV-transformed CREF cells were treated with p-CCN1-luc and/or TPA (200 ng/ml).

[2] = test system: prostate cancer cells lines DU-145, PC-3, ARCaP, ARCaP-E, ARCaP-M and normal human prostate epithelial cell lines RWPE-1 and P69; experiment: Dual-luciferase reporter assay of promoter activity (pCCN1-luc vs pPEG-luc); assay type: cell-based; details: pGL3-luc reporter, normalized with pRL-TK
Excerpt: FIGS. 1A and B. tCCN1 promoter activity in Prostate cancer (PC) and cloned rat embryo fibroblast (CREF) series of cell lines. A. Prostate cancer DU-145, PC-3, ARCaP, ARCaP-E, and ARCaP-M cells and normal RWPE-1 and P69 cells were transfected with pGL3-luc reporter vector driven by PEG-Prom (pPEG-luc) or tCCN1-Prom (pCCN1-luc). pRL-TK (Renilla luciferase) was co-transfected for the normalization of luciferase activity, and the luminescence readings were plotted as relative luminescence units (RLU). *(p<0.05), **(p<0.01) and ***(p<0.001) indicates the statistical significance by using t-test between pPEG-luc and pCCN1-luc transfected cells. B. src-, raf-, ras- and HPV-transformed CREF cells were treated with p-CCN1-luc and/or TPA (200 ng/ml). The results were recorded as RLU. *(p<0.05) and **(p<0.01) indicates the statistical significance between pCCN1-luc and pCCN1-luc plus TPA treated cells.
Prostate cancer cells were plated at seeding density of 30,000 cells/well in quadruplicate in 24-well cell culture plate. After 24 h, cells were transfected with either pGL3.PEG-luc or pGL3.CCN1-hie using Fugene® HD transfection reagent (Promega, Madison, Wis., USA). […] Cells were lysed after 48 h of post transfection and luminescence was studied using Dual-luciferase Reporter® Assay system (Promega) with luminometer. […]

[3] = test system: breast, brain (including Glioblastoma multiforme, GBM) and melanoma; experiment: tCCN1-Prom expression in additional human cancers vs normal counterparts (data not shown); assay type: cell-based

Molecule: Nc1ncnc2c1ncn2[C@@H]1O[C@@H]2COP(=O)(O)O[C@H]2[C@H]1O [cyclic adenosine mono-phosphate (AMP), cyclic adenosine mono-phosphate]
- effect on expression of the tCCN1-Prom [1]: increased the expression of the tCCN1-Prom

Molecule: CCCCCCCCCCCCCC(=O)O[C@@H]1[C@@H](C)[C@@]2(O)[C@@H](C=C(CO)C[C@]3(O)C(=O)C(C)=C[C@@H]23)[C@@H]2C(C)(C)[C@]12OC(C)=O [TPA]
- effect on expression of the tCCN1-Prom [1]: increased the expression of the tCCN1-Prom

B1: tCCN1-Prom: truncated CCN1 cancer selective promoter, SEQ ID NO: 1; tested in reporter plasmid pGL3.CCN1-luc (pCCN1-luc) (nucleic acid)
DNA: TCCAAAAACAAACAAGTACAACATACCCAAAAGAGGGAAGGGCTGGAGGAGTGGGGGAGACCTCTGCCTGGGAATTTGCCAGACGATGGGCAAGTTTCCCCCCGCCCCACCCCCCCCCCCGCCTTTTCATTCATAAATGCCACTGTGGGTATTAATTTGCAATTCACTGAACTTTGCTAATAAACATCATGCCAAAGCTTTGGGACTTGTTCCGAACACGCCTCTTTGAAGTCCACAAATATTCCTGACTCAGAGACACACTCCTCTTCCCCGTTCTACTCTTTCAACAGATAACTTGCCTCTCACCTTCGCTGTAAAAAAGCAAACAGCTCACTGCCTTCCCGGGTGAGGGCTTCAGTGGCTGCCCGGTCAACTCGCATCACCAAACAAAACGACTTTTGTTCCTCCCTCTCAGGTCCTCCCACCCACCCAGTCCAGGCAAAGTTCTGAACTGGCCCCCTCGCCCCTCACGACCCTCCAACTACCATCACCACCATCACGCCCCAAAGAACCCTTCCCAACATAAGTCGTAATTTAAGGTGGAAAAAACGAACTGTTTTCTTGACGGGTCTGGGACACACACACACACACACACACACACACACACCGAACTGTTTTCTTGACGGGTCTGGGAGACACACACACACACACACACACACACACACACACACACACACACACAAAGGTGCAATGGGGCCAGGGGAGGCGCTTGGCAGCAGCCCGCGCCAACCAGCATTCCTGAGATGTTTGAGAATTCTGGAACGCGCAGACAGAGCCGACGTCACTGCAACACGCGGCGCCTCCGCCGGCCCGTATAAAAGGCGGGCTCCGGGGCGCC
modifications: Synthetic promoter
- tCCN1-Prom activity in transformed CREF cells ([1]; src-, raf-, ras- and HPV-transformed CREF cells): elevated as a function of transformation of CREF cells by diverse acting oncogenes
- tCCN1-Prom activity compared with PEG-Prom (relative luminescence units) [2]: more active than the PEG-Prom in prostate cancer cells as compared to normal counterparts RWPE-1 and P69
- tCCN1-Prom expression in additional human cancers vs normal counterparts [3]: elevated expression in additional human cancers vs. normal immortal or primary normal counterparts
